Changes are numbered by the printed parent chain.
T1: HCV bt-141-161 (Peptide 2, HCVc 141-161) (Hepatitis C virus (numbering per HCV-1))
T1 sequence (peptide, biotin (carboxy-terminal per [p-0227]; N-terminal per [p-0050])): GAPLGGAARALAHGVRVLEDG

B1: HCV 208A-874 (antibody, V domains shown)
VH: QVQLQQPGAELVKPGASVKLSCKASGYTLSSYWMHWVKQRPGQGLEWIGEIHPSDSYTSYNQKFKDKATLTVDKSSSTAYMQLSSLTSEDSAVYYCARGGYYRYDEFAYWGQGTLVTVSA
VL: DIVMTQSHKFMSTSIGDRVSITCKASQNVSPAVAWYQQKPGQSPKLLIYSASSRYTGVPDRFTGSGSGTAFTFTISSVQAEDLAVYFCQQHFSTPWTFGGGTMLEIKR
B2: HCV 208A-422 (antibody, V domains shown)
VH: DVQLQESGPGLVNPSQSLSLTCSVTGYSITSGYYWIWIQQSPGNKLEWMGYIKYDGGNNYSPSLKNRISIARDTSKNQCFLKLNSVTIEDTATYYCTRGSDSFDYWGQGTTLTVSS
VL: DIVLTQSPASLAVSLGQRAIISCKASQSVSFAGTNLMHWYQQKPGQQPKLLIYRASNLETGVPTRFSGSGSRTDFTLNIHPVEEDDAATYYCQQSREYYTFGGGTKLEIKR
B3: HCV 208B-327 (antibody, V domains shown)
VH: EVQLVESGGGLVKPGGSLKLSCAASGFTFSDSYMYWVRQTPDQRLEWVATISDGGSYTFYPDSVKGRFTISRDNAQNNLYLQMSSLKSEDTAMYYCASPHAGYFGWFAYWGRGTLVTVSA
VL: DIVMTQAAFSNPVTPGTSVSISCRSSKSLLHSNGITYLYWYLQKPGQSPQLLIYQMSKIASGVPDRFRSSGSGTDFTLRISRVEAADVGVYYCAQNLELPWTFGGGTKLEIKR
B4: HCV 208A-126 (antibody, V domains shown)
VH: QLQQSGPVLVKPGASVMISCKTSGYTFTENAMHWVKQSHGKSLEWIGGVNPNNGDTIFNQKFKGKATLTVDKSSNTAFTELRSLPSEESTVYYCVRRGLDFFDYWGQGTSVTVSS
VL: DIVLTQSPASLAVSLGQRATISCRASQSVSTSRYSYMHWYQQKPGQPPKLLIKYASNLESGVPARFSGSGSGTDFTLNIHPVAEEDTAAYYCQHSWEFPFTFGSGTKLEIKR
B5: HCV 208A-692 (antibody, V domains shown)
VH: QGQMQQSGAELAKPGASVKLSCKTSGFTFSSSYISWLKQKPGQSLEWIAWIFAGTGNTNYNQKFTDKAQLTVDTSSSTAYMQLSSLTTEDSAIYYCAISGTGFTYWGQGTLVTVSA
VL: EVLMTQSPLSLPVSLGDQASISCRSSQSLEHSNGNTYLEWFLQRPGQPPKLLIYKVSSRFSGVPDRFSGSGSGTDFTLKISRVEAEDLGVYYCFQGSHVPFTFGSGTKLAIKR
B6: HCV 208B-826 (antibody, V domains shown)
VH: DVQLVESGGGLVQAGGSRKLSCAASGFPFSSFGMHWVRQAPEKGLEWVASISSRTSKIYYADNLKGRFTISRDNPKNTLFLQMTSLGSEDTAMYYCVRSVFGNSYWFFDVWGAGTTVTVSS
VL: DIVLTQSPATLSVTPGDRVSLSCRASQRIYNYLHWYQQKSHESPRLLTKYASQSISGIPSRFSGSGSGTDFILTINSVETEDFGMYFCQQSNSWPLTFGAGTKLELRR
B7: HCV 208A-210 (antibody, V domains shown)
VH: QVQLQQSGPELVKPGASMRISCKASGYTFTSYYVHWIKQRPGQGLEWIGCIYPGDVNTDYNEKFKGKATLTADKSSSTAYMQVSTLTSEDSAIYFCVLYYYGSFAYWGQGTLVTVSA
VL: EIVLTQSPAITAASLGQNVTITCRASSSVSYMHWYRQKSGTSPQLWIYEISRRASGVPARFRASGSGTSYSLTISSMEAEDAAIYYCQQWNYPLTFGAGTKLEVKR
B8: HCV 208B-515 (antibody, V domains shown)
VH: QVQLQQPGAELVKPGASLKLSCRASGYTFTSYWIHWVKQRPGQGLEWIGEIDPSDSYTNYNQKFKGKATLTVDKSSRAAYMQLSSLTSEDSAVYYCARHYYGVFDSWGQGTKLTVSS
VL: QIVFTQYPAIMSASLGERVTMTCTASSSVTSSYLHWFQQKPGSSPKLWIYSTSNPGSGVPARFSGRGSGTSYSLSISSMEAEDAATYYCLQFHRSPWTFGGGTKLEIRR
B9: HCV 208B-793 (antibody, V domains shown)
VH: EVKLVESGGGLVQPGGSLKLSCAASGFTFSSYAMSWVRQTPERRLEWVTYISNGGGSTYYSDTVKGRFTFSRDNAKNTLYLQMSSLKSEDTAMYYCARHGLGRTGFASWGQGTLVTVSA
VL: DIVMTQSHKFMSTSVGDRVSITCKASQDVGTAVAWYQQKPGQSPKLLIYWASTRHTGVPDRFTGSGSGTDFTLTISNVQSEDLADYFCQQYSNYLTFGAGTKLEVKR
B10: HCV 208B-911 (antibody, V domains shown)
VH: QVHLQQPGAELVRPGVSVKLSCKASGYTFTTYSINWMKQRPGQGLEWIGNIYPSTSHTNYNQKFRDKATMTVDKSSSTAYMQLSSPTSEDSAVYYCTINAYSMDYWGQGTSVTVSS
VL: QIVLTQSPEIMSASPGEKVTITCSASSSVSFMYWFQQKPGTSPKLWIYITSNLASGVPTRFSGSGSGTSYSLTISRMEAEDAATYYCQQRSSFPYTFGGGTKLEMKR
B11: HCV 208B-408 (antibody, V domains shown)
VH: EVKLVESGGGLVQPGGSLRLSCASSGFTFTDYYMSWVRQPPGKALEWLGFIRNKAYGYTTEFSASVNGRFTISRDDSQSVPYLQMNTLRAEDSATYYCARVLYYDYGGFAYWGQGTLVTVST
VL: DIQMTQSPASLSASVGETVTITCRASGNIHTYLAWYQQKQGKSPQLLVYNANTLADGVPSRFSGSGSGTQFSLKINSLQPDDFGSYYCQHFWSAPWTFGGGTQLEIKR
B12: HCV 208B-517 (antibody, V domains shown)
VH: QVQLKQSGPGLVQPSQSLSITCTVSGFSLITHGVHWVRQSPGKGLEWLGVIWSGGSTDYNAAFISRLSISKDTSKSQVFLKMSSLQADDTAIYYCARNGGATAFDYWGQGTTLTVSS
VL: DIVMTQSPATLSVTPGDRVSLSCRASQSISDYLHWYQQKSHESPRLLIKYASQSISGIPSRFRGSGSGSHFTLSINSVEPEDVGVYYCQNGHSFPWTFGGGTKLEIKR
B13: HCV 208B-822 (antibody, V domains shown)
VH: QVQLKQSGPGLVQPSQSLSITCTVSGFSLITYGVHWVRQSPGKGLEWLGVIWGGGSTGYNAAFVSRLNITKDNSKSQVFFKMNSLQPDDTAIYYCARNGGATVFDYWGQGTTLTVSS
VL: B12 VL with S28T, R63S
B14: HCV 208B-353 (antibody, V domains shown)
VH: EVQLVESGGDLVKPGGSLKLSCAASGFTFNHYGMSWVRQPPDKRLEWVATISSGGGYTYYPDSVKGRFTISRDNAKDTLSLQMSSLRSGDTAVYYCASLYGSLFAYWGQGTLVTVSA
VL: DIVMTQSQKFMSTTVGDRVRVTCKASQNVGTAVAWYQQKPGQSPKLLIYSASNRYTGVPDRFTGSGSGTDFTLTITNMQSEDLADYFCQQYSTYPLTFGSGAKLEIKR
B15: HCV 208A-442 (antibody, V domains shown)
VH: B2 VH with Q39R, S41F, C79F
VL: B2 VL
B16: HCV 208B-178 (antibody, V domains shown)
VH: DVKLVESGGGLVKLGGSLKLSCAASGFTFSSYYMSWVRQTPEKRLELVAAINSNGGSTYYPDTVKGRFTISRDNAKNTLYLQMSSLKSEDTALYYCARHGGLGRRDWYFDVWGAGTTVTVSS
VL: DIVLTQSPASLAVSLGQRATISCRASESVDNYGISFMHWYQQKPGQPPKLLIYRASNLESGIPARFSGSGSRTDFTLTINPVETDDVATYYCQQSNKDPFTFGSGAKLEIKR

These binders were tested against HCV Core1-169 (HCV-1) (UniProt P26664) (assay: EIA, core1-169 coated on plate).

Binder | OD (A492) [OD]
B1 | 0.45
B2 | 1.68

The binders below were run against bovine serum albumin (BSA) (bovine) (UniProt P02769) (assay: EIA, BSA background).
Chain of bovine serum albumin (BSA) (bovine) (P02769 25-607 limits assumed): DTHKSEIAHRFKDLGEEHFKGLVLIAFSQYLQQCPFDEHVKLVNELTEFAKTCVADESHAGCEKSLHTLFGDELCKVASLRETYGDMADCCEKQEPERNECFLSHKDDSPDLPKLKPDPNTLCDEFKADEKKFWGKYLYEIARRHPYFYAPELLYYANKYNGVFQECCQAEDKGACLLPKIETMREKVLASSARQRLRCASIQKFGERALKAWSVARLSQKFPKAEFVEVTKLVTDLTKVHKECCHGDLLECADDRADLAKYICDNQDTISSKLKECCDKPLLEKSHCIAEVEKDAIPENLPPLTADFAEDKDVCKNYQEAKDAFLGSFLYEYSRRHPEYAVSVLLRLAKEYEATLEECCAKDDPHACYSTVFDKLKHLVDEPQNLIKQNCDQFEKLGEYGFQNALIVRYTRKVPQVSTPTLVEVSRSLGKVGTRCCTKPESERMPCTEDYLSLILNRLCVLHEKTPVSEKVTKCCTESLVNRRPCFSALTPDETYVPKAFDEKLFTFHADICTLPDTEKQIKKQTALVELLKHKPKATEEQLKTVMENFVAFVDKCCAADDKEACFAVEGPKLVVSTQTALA

Binder | OD (A492) [OD]
B3 | 0.09
B1 | 0.1
B4 | 0.07
B5 | 0.09
B6 | 0.41
B7 | 0.08
B8 | 0.08
B9 | 0.2
B10 | 0.17
B11 | 0.1
B12 | 0.12
B13 | 0.11
B14 | 0.1
B15 | 0.14
B2 | 0.11
B16 | 0.08

The binders below were run against T1, HCV bt-141-161 (Peptide 2, HCVc 141-161) (Hepatitis C virus (numbering per HCV-1)) (assay: EIA, captured mAb + biotin peptide).

Binder | Reactivity (OD 492 nm) [OD units]
B5 | 0.38
B11 | 0.2

These binders were tested against bovine serum albumin (bovine) (UniProt P02769) (assay: EIA, BSA control).
Chain of bovine serum albumin (bovine) (P02769 25-607 limits assumed): as above

Binder | Reactivity (OD 492 nm) [OD units]
B3 | 0.05
B1 | 0.05
B4 | 0.1
B5 | 0.06
B6 | 0.07
B7 | 0.06
B8 | 0.06
B9 | 0.13
B10 | 0.1
B11 | 0.06
B12 | 0.11
B13 | 0.05
B14 | 0.07
B15 | 0.06
B2 | 0.07
B16 | 0.07

Biological target: bovine serum albumin (BSA) (bovine) (UniProt P02769)
Assay: EIA, BSA background
Remark: another data set of the same source

Binder | OD (A492) [OD]
B3 | 0.08
B1 | 0.06
B4 | 0.24
B5 | 0.06
B6 | 0.08
B7 | 0.06
B8 | 0.07
B9 | 0.42
B10 | 1.17
B11 | 0.08
B12 | 0.07
B13 | 0.06
B14 | 0.06
B15 | 0.06
B2 | 1.1
B16 | 0.07

What follows are binders tested against HCV Core1-169 (HCV-1) (UniProt P26664) (assay: EIA, core1-169 captured by mAb 14-153-229).

Binder | OD (A492) [OD]
B1 | 0.18
B2 | 0.18

Source: patent US20170052184A1
